Columns and labels:
[1] = target: T1, PKCg 33-36 kDa proteolytic fragment (human); assay: chemiluminescent capillary Western/ELISA on human plasma (stroke vs normal); signal at the ROC point
T1 construct: also called 32-36 kDa fragment
Experimental: (§1) The Sensitivity was calculated using (=SUM individual disease samples)/total of all disease samples). False Positives were calculated using the (=SUM each individual healthy sample/total of all healthy samples). Specificity is defined as (1-False Positives). This statistical method maximizes sensitivity and identifies the probability of false positives. The cut-off point for each ROC curve between healthy and disease samples was calculated and then related to the total chemiluminescence signal that is represented by those probabilities. The cut-off for each sample cohort stained with PKC11, PKC13, and PKC14 antibodies are represented by a line in each graph below.
(§2) Briefly, to conduct the chemiluminescent capillary ELISA in this example, reagents and individual plasma from Normal vs. TBI clinical samples were loaded into an automated Western blot machine (using the Auto-Western service from RayBiotech Life, Inc). In the first step, sample is loaded into the capillary automatically. Proteins are then separated by size as they electophoretically migrate through a stacking and separation matrix. The separated proteins are then immobilized on the capillary wall via a proprietary photoactivated capture chemistry. Target proteins, i.e., PKCg and/or PKCg proteolytic fragments were identified using a primary antibody, e.g., the rabbit monoclonal antibodies described herein, and immunoprobed with an HRP-conjugated secondary goat anti-rabbit IgG antibody and chemiluminescent substrate. An electropherogram is produced which plots the baseline, molecular weight and quantitative chemiluminescence signal of each peak. The quantitative signal was derived for each molecular weight band in every electropherogram. Each quantitative chemiluminescence signal was generated using the following formula; (C2-C1/C1), where C2 equals Area Under the Curve and C1 equals the baseline for that sample. This specific chemiluminescence measure was used in comparisons of all normal human plasma compared to TBI or stroke plasma samples after staining with antibodies, i.e., PKC11, PKC13, or PKC14. Statistical comparisons were made using GraphPad Prism 8 software. The resulting specific chemiluminescence signal was detected and quantitated, with sensitivity down in the picograms/ml range, providing a direct measure of TBI biomarkers, i.e., PKCg, and/or PKCg proteolytic fragments.

[2] = target: PKCg 53-60 kDa proteolytic fragment (human); assay: as above
Experimental: as §1, §2

[3] = target: PKCg 42-48 kDa proteolytic fragment (human); assay: as above
Experimental: as §1, §2

[4] = target: PKCg 49-52 kDa proteolytic fragment (human); assay: chemiluminescent capillary Western/ELISA on human plasma; 49-52 kDa band; sample signal at ROC cut-off
Experimental: as §1
as §2, with “Target proteins, i.e., PKCg and/or PKCg proteolytic fragments were identified using a primary antibody, e.g., the rabbit monoclonal antibodies described herein, and immunoprobed with an HRP-conjugated secondary goat anti-rabbit IgG antibody and chemiluminescent substrate.” left out, “This specific chemiluminescence measure was used in comparisons of all normal human plasma compared to TBI or stroke plasma samples after staining with antibodies, i.e., PKC11, PKC13, or PKC14. Statistical comparisons were made using GraphPad Prism 8 software.” left out

[5] = target: PKCg 49-52 kDa proteolytic fragment (human); assay: chemiluminescent capillary Western/ELISA on human plasma; 49-52 kDa band; signal at ROC cut-off
Experimental: as §1
as §2, with “Target proteins, i.e., PKCg and/or PKCg proteolytic fragments were identified using a primary antibody, e.g., the rabbit monoclonal antibodies described herein, and immunoprobed with an HRP-conjugated secondary goat anti-rabbit IgG antibody and chemiluminescent substrate.” left out, “This specific chemiluminescence measure was used in comparisons of all normal human plasma compared to TBI or stroke plasma samples after staining with antibodies, i.e., PKC11, PKC13, or PKC14. Statistical comparisons were made using GraphPad Prism 8 software.” left out

[6] = target: higher molecular weight band at 95-105 kDa (human); assay: chemiluminescent capillary Western/ELISA on human plasma (stroke vs normal); signal at the ROC point
Experimental: as §1, §2

[7] = target: T2, full-length human Protein Kinase C, gamma isoform (PKCg), 63-73 kDa (human, UniProt P05129 1-697); assay: as above
T2 construct: also called PKCγ; full-length PKCg (63-73 kDa)
Experimental: as §1, §2

[8] = target: T2, full-length human Protein Kinase C, …; assay: conclusion; clones came from ELISA/MAPIA screening against PKCg
[9] = target: PKCg 49-52 kDa proteolytic fragment (human); assay: chemiluminescent capillary Western/ELISA on human plasma; 49-52 kDa band; normal plasma sample
Experimental: as §1
Briefly, to conduct the chemiluminescent capillary ELISA in this example, reagents and individual plasma from Normal vs. TBI clinical samples were loaded into an automated Western blot machine (using the Auto-Western service from RayBiotech Life, Inc). In the first step, sample is loaded into the capillary automatically. […] An electropherogram is produced which plots the baseline, molecular weight and quantitative chemiluminescence signal of each peak. The quantitative signal was derived for each molecular weight band in every electropherogram. Each quantitative chemiluminescence signal was generated using the following formula; (C2-C1/C1), where C2 equals Area Under the Curve and C1 equals the baseline for that sample. […]

| Binder | Signal Chemiluminescence [1] | Signal Chemiluminescence [2] | Signal Chemiluminescence [3] | chemiluminescence signal (ROC cut-off, TBI) [4] | chemiluminescence signal (ROC cut-off, stroke) [5] | Signal Chemiluminescence [6] | Signal Chemiluminescence [7] | binding result [8] | chemiluminescence signal (normal plasma sample, false positive) [9] |
| --- | --- | --- | --- | --- | --- | --- | --- | --- | --- |
| PKC13 (5H1/5K1) rabbit anti-PKCg monoclonal antibody (antibody, V domains shown, Rabbit IgG heavy chain and rabbit kappa light chain; Entries as printed seem to include a leader; no cleavage site is stated; also called mAb PKC13; PCK13) VH: QEQLKESGGGLVTPGGTLTLTCTVSGFSLSSYAMSWVRQAPGKGLEWIGIIISGGSAYYATWAKGRFTISKTSTTVDLSITSPTTEDTATYFCARAKSGTYTGDYFTLWGQGTLVTVSS VL: AFELTQTPASVEAAVGGTVTIKCQASESIGNALAWYQQKPGQPPKLLIYRASTLESGVPSRFKGSGSGTEFTLTISDLECADAATYYCQSYVGSRSTGYNVFGGGTEVVVK | 319 chemiluminescence units | 3350 chemiluminescence units | 2210 chemiluminescence units | 658 chemiluminescence units | 999 chemiluminescence units |  |  |  |  |
| PKC14 (7H1/7K3) rabbit anti-PKCg monoclonal antibody (antibody, V domains shown, Rabbit IgG heavy chain and rabbit kappa light chain; Entries as printed seem to include a leader; no cleavage site is stated; also called mAb PKC14) VH: QSLEESGGDLVQPGASLTLTCTASGFTLTTYWICWVRQAPGKGLEWVACILTGSGSTYYASWVNGRFTISKTSSTTVTLQMTSLTAADTATYFCARYGGDATYNENLWGQGTLVTVSS VL: AQVLTQTPSSVSAAVGGTVTINCQASQSVYNNNRLSWYQQKPGQPPKRLIYGVSTLYYGVSSRFKGSGSGTQFTLTISGMQCDDAAIYYCLGGYDCASADCYAFGGGTEVVVK | 230 chemiluminescence units | 654 chemiluminescence units | 633 chemiluminescence units | 299 chemiluminescence units | 257 chemiluminescence units | 443 chemiluminescence units | 866 chemiluminescence units |  |  |
| PKC11 (1H1/1K1) rabbit anti-PKCg monoclonal antibody (antibody, V domains shown, Rabbit IgG heavy chain and rabbit kappa light chain; also called mAb PKC11) VH: QSVEESGGRLVTPGTPLALTCTVSGFSLNYYAMNWVRQAPVKGLEWIGVITSDTTYYASWAKGRFTISKTSTTVELQITSPTTEDTATYFCASGGSTTSPALWGQGTLVTVSS VL: AQVLTQTPSPVSAAVGSTVTINCQASQSVWSKNYLSWFQQKPGQPPKQLIYSASTLASGVPSRFSGSGSGTQFTLTISDVQCDDAATYYCLGSYDCRSADCWTFGGGTEVVVK | 126 chemiluminescence units | 1540 chemiluminescence units | 637 chemiluminescence units | 710 chemiluminescence units | 797 chemiluminescence units |  | 1770 chemiluminescence units |  | 630 chemiluminescence units |

Now from value to binder:

| Signal Chemiluminescence [1] | Signal Chemiluminescence [2] | Signal Chemiluminescence [3] | chemiluminescence signal (ROC cut-off, TBI) [4] | chemiluminescence signal (ROC cut-off, stroke) [5] | Signal Chemiluminescence [6] | Signal Chemiluminescence [7] | binding result [8] | chemiluminescence signal (normal plasma sample, false positive) [9] | Binder |
| --- | --- | --- | --- | --- | --- | --- | --- | --- | --- |
|  |  |  |  |  |  |  | binds |  | 4H1/4K1 rabbit anti-PKCg monoclonal antibody clone (antibody, V domains shown, Rabbit IgG heavy chain and kappa light chain; Entries as printed seem to include a leader; no cleavage site is stated) VH: QSVEESGGRLVTPGTPLTLTCTVSGFSLSLSRNAVSWVRQAPGKGLEWTGIIFGDAKTYYASWAKGRFTISKTATTVDLKITSLTTEDTATYFCVAGTGLWGQGTLVTVSS VL: AQVLTQTASPVSAAVGSTVTINCQASQSVYNKNRLSWYQQKPGQPPKRLIYSSSTLDSGVPLRFSGSGSGTQFTLTISGVQCDDAATYYCLGSYDCSSADCNAFGGGTEVVVK |
|  |  |  |  |  |  |  | binds |  | 20H1/20K3 rabbit anti-PKCg monoclonal antibody clone (antibody, V domains shown, Rabbit IgG heavy chain and kappa light chain; Entries as printed seem to include a leader; no cleavage site is stated) VH: QSVEESGGRLVTPGTPLTLTCTVSGIDLSSNAMNWVRQAPGKGLEWIGIIGFSGSTNYASWAKGRFTISKTSTTVDLKITSPTTEDTATYFCARGGLNIGMNLWGQGTLVTVSS VL: AQVLTQTPSPVSAAVGGTVPISCQSSQSVYDNNWLAWYQQKPGQPPKLLVYYASTLASGVPSRFKGSGSGTQFTLTINDLECDDAATYYCAGGYGDTNGGASSFGGGTEVVVK |

— patent US20220057411A1 (PERSEUS SCIENCE GROUP, published 2022)
